Consider one substance from patent US20160222130A1.

In this test the target is human Tie2 (on human Tie2-expressing cells) (human) (UniProt Q02763). Kind of test: cell-based or functional assay.
Chain of human Tie2 (on human Tie2-expressing cells) (human) (Q02763 23-1124): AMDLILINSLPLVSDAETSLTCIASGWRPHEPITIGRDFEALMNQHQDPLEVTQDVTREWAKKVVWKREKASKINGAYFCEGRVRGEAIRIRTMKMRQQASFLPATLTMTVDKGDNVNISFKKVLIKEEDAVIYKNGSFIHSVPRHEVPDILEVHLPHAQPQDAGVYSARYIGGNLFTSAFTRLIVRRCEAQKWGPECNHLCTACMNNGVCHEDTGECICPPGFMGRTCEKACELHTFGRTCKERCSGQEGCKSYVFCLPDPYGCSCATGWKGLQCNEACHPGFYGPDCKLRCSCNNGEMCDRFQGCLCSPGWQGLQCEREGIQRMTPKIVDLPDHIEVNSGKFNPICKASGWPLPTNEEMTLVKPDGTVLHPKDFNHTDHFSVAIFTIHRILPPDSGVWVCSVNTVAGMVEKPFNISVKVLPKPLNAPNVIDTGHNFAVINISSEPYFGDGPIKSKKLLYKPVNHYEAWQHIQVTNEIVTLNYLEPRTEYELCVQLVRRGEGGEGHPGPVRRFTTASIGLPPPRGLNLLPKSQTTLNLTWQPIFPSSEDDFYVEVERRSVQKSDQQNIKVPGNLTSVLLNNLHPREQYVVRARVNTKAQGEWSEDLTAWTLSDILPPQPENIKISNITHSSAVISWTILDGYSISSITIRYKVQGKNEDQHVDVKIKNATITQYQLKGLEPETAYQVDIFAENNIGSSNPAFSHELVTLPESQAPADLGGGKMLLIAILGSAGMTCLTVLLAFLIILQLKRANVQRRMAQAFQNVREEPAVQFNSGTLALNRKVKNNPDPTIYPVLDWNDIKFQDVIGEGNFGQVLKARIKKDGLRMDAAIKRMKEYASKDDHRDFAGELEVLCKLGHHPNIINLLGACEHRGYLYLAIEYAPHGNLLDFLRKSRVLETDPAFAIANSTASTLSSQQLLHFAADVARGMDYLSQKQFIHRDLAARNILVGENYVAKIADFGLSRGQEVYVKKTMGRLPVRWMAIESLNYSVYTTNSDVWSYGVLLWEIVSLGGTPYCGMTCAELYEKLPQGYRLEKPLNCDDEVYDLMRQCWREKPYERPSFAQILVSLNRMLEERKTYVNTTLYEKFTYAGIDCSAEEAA

Take “Ang-2 (R&D, 623-AN-025) (from UniProt O15123 19-496) (ligand)”: the EC50 value of anti-apoptotic activity, human Tie2-expressing BaF3 cell was 39.3 ng/mL and the Maximum activity of anti-apoptotic activities (Ang-1 = 100%) worked out at 67%.
